Consider four compounds from article PMC7229144, “Tetracycline-inactivating enzymes from environmental, human commensal, and pathogenic bacteria cause broad-spectrum tetracycline resistance” (Communications Biology, 2020).

In series [1] the target is T1, Tet(X7) (human gut metagenome, UniProt Z9HWK3IZF4). The series is classed as binding. To be noted: FAD in IN-conformation.
The target of series [2] is T1, Tet(X7). Briefly: absorbance, initial velocity of tigecycline degradation. It is filed as biochemical. To be noted: read-out: IC50 (apparent).
The subject of series [3] is CN(C)c1cc(NC(=O)CNC(C)(C)C)c(O)c2c1C[C@H]1C[C@H]3[C@H](N(C)C)C(=O)C(C(N)=O)=C(O)[C@@]3(O)C(=O)C1=C2O. Briefly: purified protein. To be noted: 0-40 µM substrate, 504 µM NADPH, 5.04 mM MgCl2, 0.4 µM enzyme, 100 mM TAPS pH 8.5, room temperature.
The subject of series [4] is CN(C)[C@@H]1C(=O)C(C(N)=O)=C(O)[C@@]2(O)C(=O)C3=C(O)c4c(O)c(NC(=O)CN5CCCC5)cc(F)c4C[C@H]3C[C@@H]12. Briefly: purified protein. To be noted: 0-40 µM substrate, 504 µM NADPH, 5.04 mM MgCl2, 0.4 µM enzyme, 100 mM TAPS pH 8.5, room temperature.
For series [5], the system named is CN(C)c1cc(CNCC(C)(C)C)c(O)c2c1C[C@H]1C[C@H]3[C@H](N(C)C)C(=O)C(C(N)=O)=C(O)[C@@]3(O)C(=O)C1=C2O. The series can be described thus: purified protein. To be noted: 0-40 µM substrate, 504 µM NADPH, 5.04 mM MgCl2, 0.4 µM enzyme, 100 mM TAPS pH 8.5, room temperature.

T1 sequence (Z9HWK3IZF4 21-399 limits assumed): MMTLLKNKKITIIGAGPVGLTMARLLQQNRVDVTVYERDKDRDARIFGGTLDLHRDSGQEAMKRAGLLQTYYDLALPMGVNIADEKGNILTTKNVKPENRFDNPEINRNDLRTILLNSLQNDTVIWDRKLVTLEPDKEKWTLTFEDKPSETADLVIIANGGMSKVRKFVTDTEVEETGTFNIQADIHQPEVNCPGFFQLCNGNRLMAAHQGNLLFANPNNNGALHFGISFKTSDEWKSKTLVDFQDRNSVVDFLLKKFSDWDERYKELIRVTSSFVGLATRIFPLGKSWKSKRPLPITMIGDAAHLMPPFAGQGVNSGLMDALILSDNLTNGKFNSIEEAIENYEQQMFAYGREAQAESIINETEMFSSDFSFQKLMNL

`Cc1cc2nc3c(=O)[nH]c(=O)nc-3n(C[C@H](O)[C@H](O)[C@H](O)COP(=O)(O)OP(=O)(O)OC[C@H]3O[C@@H](n4cnc5c(N)ncnc54)[C@H](O)[C@@H]3O)c2cc1C` [FAD]: the “X-ray crystal structure, 2.55 Å” value on Tet(X7) [1] is reported as “The FAD in Tet(X7) retains an IN-conformation”.
In the case of `CN(C)[C@@H]1C(=O)C(C(N)=O)=C(O)[C@@]2(O)C(=O)c3c(cc4c(Cl)ccc(O)c4c3O)C[C@@H]12` [anhydrodemeclocycline], at Tet(X7) [2], the IC50 is 260 ± 40 nM.
As to `Cc1c2c(c(O)c3c(O)cccc13)C(=O)[C@]1(O)C(=O)C(C(N)=O)=C(O)[C@@H](N(C)C)[C@@H]1C2` [anhydrotetracycline], on Tet(X7) [2], the half-inhibitory concentration (IC50) was determined as 1060 ± 108 nM.
With Tet(X7) (uncultured bacterium), the figures for the Km in series [3], in series [4] and in series [5] were 4 ± 0.4 µM, 6 ± 1 µM and 4 ± 0.4 µM, respectively. In addition, the kcat is 0.005 ± 0.00017 s⁻¹ in series [3] and 0.0033 ± 0.0001 s⁻¹ in series [5].
